# Data taken from the supplement of paper PMC7877785.
# ± gives the uncertainty stated by the source.
# Assay: self-splicing fitness, log relative to wild type (ln ratio); higher = more splicing; Tetrahymena group I intron in knt gene, E. coli kanamycin selection, DiMSum; sequences stand for … in CUCUCU…GGAGGGAAAAGUUAUCAGGCAUGCACCUGGUAGCUAGUCUUUAAACCAAUAGAUUGCAUCGGUUUAAAAGGCAAGACCGUCAAAUUGCGGGAAAGGGGUCAACAGCCGUUCAGUACCAAGUCUCAGGGGAAACUUUGAGAUGGCCUUGCAAAGGGUAUGGUAAUAAGCUGACGGACAUGGUCCUAACCACGCAGCCAAGUCCUAAGUCAACAGAUCUUCUGUUGAUAUGGAUGCAGUUCACAGACUAAAUGUCGGUCGGGGAAGAUGUAUUCUUCUCAUAAGAUAUAGUCGGACCUCUCCUUAAUGGGAGCUAGCGGAUGAAGUGAUGCAACACUGGAGCCGCUGGGAACUAAUUUGUAUGCGAAAGUAUAUUGAUUAGUUUUGGAGUACUCGUGGUCG
# In short: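 Colonies from six replicate transformations of E. coli BL21(DE3) were pooled and amplicon-sequenced on an Illumina HiSeq 2500. The library placed an intron with all eight P1ex-region nucleotides randomised inside the knt kanamycin-resistance gene on pET-22b(+), and cells grew overnight at 37°C or 30°C on LB agar with or without 25 μg/mL kanamycin (plus 100 μg/mL carbenicillin, 50 μM IPTG, 0.2% rhamnose). Fitness is the DiMSum error-weighted combination of wild-type-normalised replicate fold changes, kanamycin versus none.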
Sequence,self-splicing fitness (ln) (30 °C),self-splicing fitness (ln) (37 °C)
CGGUAGCAAUAUUACGCGAA,-2.83 ± 0.25,-1.28 ± 0.19
ACGAAGCAAUAUUACGUAAG,-2.37 ± 0.1,-1.05 ± 0.12
AGGCAGCAAUAUUACGCCAG,-0.444 ± 0.14,-0.82 ± 0.25
AUCUAGCAAUAUUACGGGUG,-1.93 ± 0.067,-0.57 ± 0.067
UGAUAGCAAUAUUACGUGGU,-2.4 ± 0.21,-2.73 ± 0.23
ACUAAGCAAUAUUACGACUA,-1.52 ± 0.14,-0.721 ± 0.14
CGAUAGCAAUAUUACGGCGC,-1.21 ± 0.15,-0.875 ± 0.26
AACCAGCAAUAUUACGGGUC,-3.62 ± 0.13,-2.68 ± 0.15
GAGGAGCAAUAUUACGCGCU,-3.28 ± 0.16,-2.06 ± 0.16
CUUGAGCAAUAUUACGGGCG,-2.02 ± 0.13,-1.51 ± 0.11
GUGCAGCAAUAUUACGGCAU,-2.93 ± 0.2,-1.64 ± 0.18
GUUAAGCAAUAUUACGGGGA,-3.04 ± 0.37,-2.15 ± 0.47
AUGCAGCAAUAUUACGAGAC,-3.17 ± 0.29,-2.59 ± 0.33
UCAUAGCAAUAUUACGUAGC,-4.12 ± 0.3,-0.156 ± 0.15
GCUUAGCAAUAUUACGUCAA,-2.67 ± 0.26,-1.66 ± 0.2
UGCUAGCAAUAUUACGUGGU,-3.36 ± 0.22,-2.13 ± 0.24
GUGUAGCAAUAUUACGGAAG,-1.96 ± 0.19,-0.206 ± 0.19
AGGGAGCAAUAUUACGUGCG,-2.99 ± 0.2,-2.4 ± 0.29
CGAUAGCAAUAUUACGCAAG,-1.97 ± 0.13,-0.614 ± 0.11
ACAAAGCAAUAUUACGGAGA,-3.37 ± 0.19,-2.39 ± 0.19
AAUCAGCAAUAUUACGCACA,-0.245 ± 0.063,0.0601 ± 0.085
UUUUAGCAAUAUUACGGAGU,-2.29 ± 0.33,-1.95 ± 0.28
AAAAAGCAAUAUUACGUUGG,-3.28 ± 0.14,-1.15 ± 0.11
AACAAGCAAUAUUACGCUCC,-2.2 ± 0.12,-0.601 ± 0.13
UUGAAGCAAUAUUACGUCUG,0.509 ± 0.059,0.84 ± 0.081

Sequence,self-splicing fitness (ln) (30 °C),self-splicing fitness (ln) (37 °C)
CGGGAGCAAUAUUACGACGC,-4.16 ± 0.46,-3.31 ± 0.3
GUAUAGCAAUAUUACGUAAU,-2.43 ± 0.14,-0.699 ± 0.14
GUUCAGCAAUAUUACGAUAU,-0.361 ± 0.086,0.524 ± 0.097
CAUGAGCAAUAUUACGUACG,-0.969 ± 0.074,0.257 ± 0.1
GUGUAGCAAUAUUACGGUUG,-2.88 ± 0.14,-2.61 ± 0.16
ACGCAGCAAUAUUACGAAUG,-2.51 ± 0.086,-1.2 ± 0.097
UCCAAGCAAUAUUACGGCCA,-0.223 ± 0.11,0.127 ± 0.11
CGCCAGCAAUAUUACGAGGA,-3.07 ± 0.19,-2.41 ± 0.22
UGGAAGCAAUAUUACGGUCU,-1.94 ± 0.14,0.0438 ± 0.16
CUCUAGCAAUAUUACGCGAA,-2.68 ± 0.24,-3.56 ± 0.28
CAACAGCAAUAUUACGUAAU,-2.46 ± 0.08,-2 ± 0.12
UGCCAGCAAUAUUACGGUGC,-4.01 ± 0.18,-2.14 ± 0.21
CCGGAGCAAUAUUACGGACA,-2.43 ± 0.42,-2.97 ± 0.47
CAGGAGCAAUAUUACGUUGA,-3.22 ± 0.37,-3.85 ± 0.42
AUGGAGCAAUAUUACGUUAA,-2.58 ± 0.22,-1.59 ± 0.23
GGCAAGCAAUAUUACGUAGC,-2.4 ± 0.33,-2.24 ± 0.32
GAACAGCAAUAUUACGCCGU,-1.98 ± 0.13,-1.61 ± 0.13
AUCUAGCAAUAUUACGCGUC,-3.53 ± 0.39,-1.07 ± 0.18
GAGUAGCAAUAUUACGUGUG,-2.73 ± 0.11,-1.87 ± 0.12
AGAUAGCAAUAUUACGUGGG,-2.85 ± 0.15,-2.49 ± 0.19
AGGAAGCAAUAUUACGAGCU,-0.467 ± 0.082,0.0249 ± 0.1
CAUCAGCAAUAUUACGCUAC,-3.62 ± 0.27,-3.33 ± 0.46
AUUCAGCAAUAUUACGCAGA,-2.28 ± 0.21,-0.845 ± 0.12
CCUUAGCAAUAUUACGAGCG,-1.02 ± 0.077,-0.792 ± 0.095
CGAUAGCAAUAUUACGCCAG,-1.35 ± 0.1,-0.84 ± 0.15

Sequence,self-splicing fitness (ln) (30 °C),self-splicing fitness (ln) (37 °C)
AUGCAGCAAUAUUACGCUGG,-2.5 ± 0.17,-2.68 ± 0.25
UAUUAGCAAUAUUACGGCUU,-1.35 ± 0.13,-0.478 ± 0.17
GACGAGCAAUAUUACGGUCG,-2.31 ± 0.097,-0.868 ± 0.12
GAGGAGCAAUAUUACGUCUG,-1.73 ± 0.15,-1.07 ± 0.18
ACCAAGCAAUAUUACGUACG,-2.52 ± 0.083,-1.28 ± 0.092
CGGGAGCAAUAUUACGGGGA,-2.04 ± 0.3,-1.83 ± 0.23
AACUAGCAAUAUUACGAGCU,-1.5 ± 0.095,-0.511 ± 0.11
CAUUAGCAAUAUUACGCAUG,-4.08 ± 0.46,-3.16 ± 0.4
GCCUAGCAAUAUUACGGCGA,-2.64 ± 0.4,-1.41 ± 0.28
GACUAGCAAUAUUACGAGAU,-2.93 ± 0.19,-1.57 ± 0.21
AAAGAGCAAUAUUACGUCUG,-3.55 ± 0.22,-2.36 ± 0.2
UAUCAGCAAUAUUACGGUCG,-0.0229 ± 0.059,0.259 ± 0.066
UCGCAGCAAUAUUACGGAUA,-2.58 ± 0.25,-2.44 ± 0.26
ACCCAGCAAUAUUACGGCCU,-0.518 ± 0.052,0.0547 ± 0.067
CCUAAGCAAUAUUACGAUUG,-3.51 ± 0.19,-1.68 ± 0.13
GCAAAGCAAUAUUACGAAAG,-2.86 ± 0.19,-1.94 ± 0.21
CAUGAGCAAUAUUACGGCCC,-2.29 ± 0.29,–
GUCGAGCAAUAUUACGACGG,–,-1.72 ± 0.43
CCACAGCAAUAUUACGGUGU,-2.98 ± 0.12,-3.03 ± 0.2
UAGCAGCAAUAUUACGGUGU,-3.53 ± 0.15,-1.84 ± 0.15
UCUCAGCAAUAUUACGUCUG,-4.98 ± 0.45,-2.82 ± 0.25
CGCGAGCAAUAUUACGAUGG,-1.66 ± 0.12,-1.2 ± 0.14
CAACAGCAAUAUUACGCGUU,-3.77 ± 0.14,-1.62 ± 0.08
CCAUAGCAAUAUUACGUCCG,-0.229 ± 0.077,0.347 ± 0.13
CCAGAGCAAUAUUACGAUGA,-1.88 ± 0.14,-0.518 ± 0.11
